Data on one molecule can be found in PMC4245140, “Towards Engineering Hormone-Binding Globulins as Drug Delivery Agents” (PLoS ONE, 2014).

On the set-up of experiment [1]: method as in PMID 23783094. The note with it: recombinantly expressed wild type CBG; cited from earlier work.
Experiment [2] can be described thus: Fluorimetric titration of L-T4-thyroxine-6-carboxyfluorescein with engineered CBG. The format is binding. The method, then:
(§1) Fluorescence spectroscopy was used to study the CBG-ligand interactions. Experiments were performed on an LS55 120V fluorescence spectrometer (Perkin Elmer), and the data were read and recorded using their proprietary FL WinLab software. For binding studies of CBG with cortisol, the excitation wavelength was set at 280 nm and the emission was detected at 350 nm, with a 315 nm cut-off filter used to prevent the excitation laser from leaching into the emission channel. For the binding studies of engineered CBG with L-T4-thyroxine-6-carboxyfluorescein, the excitation wavelength was set at 495 nm and emission was recorded at 520 nm whilst applying a 515 nm cut-off filter.
L-T4-thyroxine-6-carboxyfluorescein was previously synthesised and purified as a 1.09 µM solution with acetonitrile as its solvent. This was diluted into a 5 nM solution with a buffer containing 10 mM Tris-HCl, pH 7.4, 150 mM NaCl, 1 mM EDTA, 0.1% v/v PEG 8000. Aliquots of the engineered CBG were titrated into 800 µl of this solution, and increments in fluorescence signal were monitored.
(§2) In both cases, the data were fitted using Prism 5 (GraphPad Software) to the following equation to obtain the dissociation constant, Kd: [drawing 2] (2) where ΔF is the fluorescence change, ΔFM is the maximum change in fluorescence signal, [L]t is the total concentration of ligand added and [E]t is the total protein concentration.

In experiment [3] the target is prostate specific antigen (PSA) (Homo sapiens, UniProt P07288). The experiment is described as follows: Protease cleavage assay (SDS-PAGE) with prostate specific antigen. The settings on record: incubation 2-72 hours. Type of experiment: biochemical. An excerpt:
(§3) Reactive loop cleavage is marked by a characteristic 4 kDa change in molecular weight following release of a peptide when the R-state CBG is unfolded, such as when it is subjected to the denaturing conditions of an SDS-PAGE [14], [22]. We used this as a convenient means by which to check the engineered protein's protease specificity and, as a corollary, its site specificity.

The nature of experiment [4]: Fluorimetric titration (intrinsic fluorescence quenching) of CBG with cortisol. Type of experiment: binding. The settings on record: physiological temperature (37°C). On the procedure:
CBG is known to bind cortisol with a one-to-one stoichiometry, [19]. Therefore, the dissociation constant, which is a measure of binding affinity, is given by the following equation: [drawing 1] (1) where [E]f is the concentration of free CBG, [L]f is the concentration of free ligand, and [E·L] is the concentration of the CBG-ligand complex.
as §1
The cortisol stock solution was prepared by dissolving lyophilised cortisol (Sigma Aldrich) in 80% ethanol to make a 500 µM solution, which was then diluted with water to make solutions of 20, 40 and 80 µM, with water being used as a negative control. Aliquots of the ligand solutions were then titrated into 800 µl of a 200 nM solution of CBG made by diluting the protein stock with a buffer containing 10 mM Tris-HCl, pH 7.4, 150 mM NaCl, 1 mM EDTA, 0.1% v/v PEG 8000, and the decrease in fluorescence due to quenching was measured.
as §2

Another experiment deals with T1, thrombin (Homo sapiens, UniProt P00734).
T1 construct: causes the zymogen, prothrombin, to be cleaved to produce enzymatically-active thrombin
The experiment is described as follows: Protease cleavage assay (SDS-PAGE) with thrombin. Type of experiment: biochemical. The settings on record: protease:CBG 1:100, 37°C, half an hour. On the procedure:
as §3, with “To determine if a particular target protease is able to cleave the reactive centre loop of an engineered CBG variant, the protease was incubated with CBG at a molar ratio of 1∶100 at 37°C for half an hour unless otherwise specified. Reactive” for “Reactive”

Where two headings read alike, the source gives them in different places.

Chain of prostate specific antigen (PSA) (P07288 25-261): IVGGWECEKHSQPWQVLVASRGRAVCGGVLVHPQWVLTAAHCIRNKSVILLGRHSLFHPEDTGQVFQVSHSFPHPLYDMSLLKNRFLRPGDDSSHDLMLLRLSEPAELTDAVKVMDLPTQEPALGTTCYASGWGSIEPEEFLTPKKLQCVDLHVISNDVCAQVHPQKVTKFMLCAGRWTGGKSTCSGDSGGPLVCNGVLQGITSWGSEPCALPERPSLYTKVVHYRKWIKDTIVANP

B1: wild-type: Recombinant wild type human corticosteroid binding globulin expressed in E. coli (protein, UniProt P08185 23-405, looked up)
Corticosteroid-binding …: MDPNAAYVNMSNHHRGLASANVDFAFSLYKHLVALSPKKNIFISPVSISMALAMLSLGTCGHTRAQLLQGLGFNLTERSETEIHQGFQHLHQLFAKSDTSLEMTMGNALFLDGSLELLESFSADIKHYYESEVLAMNFQDWATASRQINSYVKNKTQGKIVDLFSGLDSPAILVLVNYIFFKGTWTQPFDLASTREENFYVDETTVVKVPMMLQSSTISYLHDSELPCQLVQMNYVGNGTVFFILPDKGKMNTVIAALSRDTINRWSAGLTSSQVDLYIPKVTISGVYDLGDVLEEMGIADLFTNQANFSRITQDAQLKSSKVVHKAVLQLNEEGVDTAGSTGVTLNLTSKPIILRFNQPFIIMIFDHFTWSSLFLARVMNPV
modifications: expressed in E. coli
Turning to B1, in experiment [1], the “Fold decrease in affinity for cortisol upon cleavage of reactive centre loop” value is listed as 2.6 fold. In experiment [2], the “Affinity for L-thyroxine-6-carboxyfluorescein” value is recorded as “no affinity”. Further, in experiment [3], the “Cleavage of reactive centre loop by PSA” value is given as “no evidence of reactive centre loop cleavage”. The Kd is 279 ± 18 nM in experiment [4] (intact S-state, read-out: Kd for cortisol, S (uncleaved) conformation) and 734 ± 48 nM in experiment [4] (reactive centre loop-cleaved R-state, read-out: Kd for cortisol, R (cleaved) conformation). For the same molecule, the “Fold change in Kd (cortisol) on reactive centre loop cleavage, S to R” value in experiment [4] (disulphide mutants in absence of TCEP) is 2.6 fold. Moreover, the “Cleavage of reactive centre loop by thrombin” value with thrombin is “remained unreactive”.

For orientation: Kd means a measure of binding affinity in units of concentration.
